From PMC3494860 (The Journal of Cell Biology, 2012)

Biological target: T1, GST-PATJ (Drosophila melanogaster, UniProt Q9NB04 1-871)
T1 sequence (looked up): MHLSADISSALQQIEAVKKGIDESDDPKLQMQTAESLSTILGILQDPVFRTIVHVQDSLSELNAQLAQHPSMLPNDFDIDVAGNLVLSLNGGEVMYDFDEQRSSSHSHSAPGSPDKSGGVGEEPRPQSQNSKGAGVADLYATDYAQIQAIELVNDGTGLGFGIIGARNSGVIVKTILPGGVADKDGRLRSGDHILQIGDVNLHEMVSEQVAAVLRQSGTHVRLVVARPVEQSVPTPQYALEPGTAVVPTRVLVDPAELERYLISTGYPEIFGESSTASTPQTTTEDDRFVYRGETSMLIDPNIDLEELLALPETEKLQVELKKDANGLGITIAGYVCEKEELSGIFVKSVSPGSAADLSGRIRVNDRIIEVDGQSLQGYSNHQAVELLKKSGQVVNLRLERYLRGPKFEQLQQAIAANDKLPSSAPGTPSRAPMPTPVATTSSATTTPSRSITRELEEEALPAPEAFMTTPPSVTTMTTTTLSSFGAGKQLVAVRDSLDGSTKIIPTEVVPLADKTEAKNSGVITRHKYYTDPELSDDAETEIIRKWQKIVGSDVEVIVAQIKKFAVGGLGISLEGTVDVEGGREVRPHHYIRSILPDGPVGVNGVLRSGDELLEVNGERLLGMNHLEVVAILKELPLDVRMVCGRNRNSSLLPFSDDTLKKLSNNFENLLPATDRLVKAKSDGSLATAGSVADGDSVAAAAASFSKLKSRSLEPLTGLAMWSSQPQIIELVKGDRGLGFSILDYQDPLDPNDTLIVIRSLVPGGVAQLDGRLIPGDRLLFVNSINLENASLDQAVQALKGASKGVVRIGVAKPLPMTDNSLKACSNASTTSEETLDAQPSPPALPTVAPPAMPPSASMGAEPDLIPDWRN
Assay: pull-down

B1: MBP-Sqh (natural protein, Drosophila melanogaster, UniProt P40423 1-174, looked up)
chain: MSSRKTAGRRATTKKRAQRATSNVFAMFDQAQIAEFKEAFNMIDQNRDGFVEKEDLHDMLASLGKNPTDDYLDGMMNEAPGPINFTMFLTLFGERLQGTDPEDVIKNAFGCFDEENMGVLPEDRLRELLTTMGDRFTDEDVDEMYREAPIKNGLFDYLEFTRILKHGAKDKDEQ
B1: binds.
